Data published in publication PMC11460708 (PLOS Pathogens, 2024).

What was measured:
[1] = target: T1, BA.1 RBD (SARS-CoV-2 Omicron BA.1 (GISAID …, strain)); test: SPR; details: both partners purified
T1 construct: not shown: His tag, C-terminal, kept

[2] = target: T2, XBB.1.5 RBD (SARS-CoV-2 Omicron XBB.1.5 (GISAID …, E484A (prototypic numbering) | F490S (prototypic numbering))); test: SPR; details: both partners purified
T2 construct: not shown: His tag, C-terminal, kept

B1: Nanosota-3C (VHH)
VHH: QVQLQESGGGLVQAGGSLRLSCAASGSIFSPNTMGWFRQALGKQREGVAFISSIASTSYWLPVKGRFTITRDNTKNTVHLQMNSLIPEDTAVYYCYAVDKSQDYWGQGTQVTVSS
Kd [1]: 27.3 nM
Kd [2]: 2.04 nM
